Test results reported in the supplement of paper PMC9112550, “Optimization of the antimicrobial peptide Bac7 by deep mutational scanning” (BMC Biology, 2022).

Tested on: Escherichia coli TOP10
Test: shrunken log2 fold change of peptide-encoding DNA abundance (4.5 h post-induction vs induction); higher = less antimicrobial activity (less host growth inhibition)
Settings: time post-induction: 4.5 h; library: site-saturation at positions 5, 18, 19, 20
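Note: peptides expressed intracellularly from a pBAD plasmid library in pooled LB shake-flask culture, induced with 0.3% L-arabinose, DNA abundance read by NGS, three biological replicates, DESeq2 with apeglm shrinkage.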

| Sequence | shrunken log2 fold change |
| --- | --- |
| RRIRLRPPRLPRPRPRPCVIPRP | -0.27 |
| RRIRLRPPRLPRPRPRPYANPRP | -0.165 |
| RRIRCRPPRLPRPRPRPLGVPRP | 0.0123 |
| RRIRKRPPRLPRPRPRPKAHPRP | 0.242 |
| RRIRQRPPRLPRPRPRPAGDPRP | 0.127 |
| RRIRARPPRLPRPRPRPEHGPRP | 0.0464 |
| RRIRDRPPRLPRPRPRPPVKPRP | 0.421 |
| RRIRWRPPRLPRPRPRPRYVPRP | -0.147 |
| RRIRCRPPRLPRPRPRPWNFPRP | -0.182 |
| RRIRDRPPRLPRPRPRPIRCPRP | -0.0116 |
| RRIRGRPPRLPRPRPRPYQGPRP | 0.0167 |
| RRIRARPPRLPRPRPRPGDGPRP | 0.939 |
| RRIRFRPPRLPRPRPRPMIFPRP | -0.364 |
| RRIRFRPPRLPRPRPRPPVGPRP | 0.641 |
| RRIRIRPPRLPRPRPRPRIMPRP | -0.537 |
| RRIRMRPPRLPRPRPRPQGRPRP | 0.113 |
| RRIRYRPPRLPRPRPRPFKQPRP | -1.41 |
| RRIRVRPPRLPRPRPRPIDDPRP | -0.14 |
| RRIRDRPPRLPRPRPRPSEYPRP | -0.0118 |
| RRIRTRPPRLPRPRPRPVNEPRP | -0.103 |
| RRIRWRPPRLPRPRPRPMLHPRP | -0.17 |
| RRIRQRPPRLPRPRPRPQITPRP | -0.337 |

| Sequence | shrunken log2 fold change |
| --- | --- |
| RRIRKRPPRLPRPRPRPKHAPRP | -0.0322 |
| RRIRARPPRLPRPRPRPSAWPRP | 0.797 |
| RRIRGRPPRLPRPRPRPWYLPRP | -0.575 |
| RRIRTRPPRLPRPRPRPNKAPRP | -0.0944 |
| RRIRRRPPRLPRPRPRPMFNPRP | -0.146 |
| RRIRGRPPRLPRPRPRPFRVPRP | -0.149 |
| RRIRGRPPRLPRPRPRPYCQPRP | -0.32 |
| RRIRTRPPRLPRPRPRPTWLPRP | 0.511 |
| RRIRTRPPRLPRPRPRPIIMPRP | -0.305 |
| RRIRGRPPRLPRPRPRPPSIPRP | 0.519 |
| RRIRDRPPRLPRPRPRPKLYPRP | 0.0658 |
| RRIRERPPRLPRPRPRPMKHPRP | -0.794 |
| RRIRFRPPRLPRPRPRPMYHPRP | -1.01 |
| RRIRERPPRLPRPRPRPRLWPRP | 0.0271 |
| RRIRSRPPRLPRPRPRPDVKPRP | -0.0928 |
| RRIRFRPPRLPRPRPRPAFIPRP | -0.274 |
| RRIRWRPPRLPRPRPRPPFSPRP | 0.222 |
| RRIRCRPPRLPRPRPRPVCNPRP | 0.0532 |
| RRIRCRPPRLPRPRPRPTIGPRP | -0.0746 |
| RRIRARPPRLPRPRPRPQFAPRP | 0.402 |
| RRIRARPPRLPRPRPRPKDRPRP | 0.145 |
| RRIRQRPPRLPRPRPRPGVPPRP | 0.154 |

| Sequence | shrunken log2 fold change |
| --- | --- |
| RRIRSRPPRLPRPRPRPVRGPRP | 0.573 |
| RRIRTRPPRLPRPRPRPVPWPRP | 0.95 |
| RRIRERPPRLPRPRPRPFLPPRP | -0.701 |
| RRIRTRPPRLPRPRPRPEKMPRP | 0.171 |
| RRIRQRPPRLPRPRPRPNIAPRP | -0.0856 |
| RRIRERPPRLPRPRPRPRQRPRP | 0.32 |
| RRIRKRPPRLPRPRPRPPLSPRP | 0.832 |
| RRIRTRPPRLPRPRPRPYTSPRP | -0.00661 |
| RRIRLRPPRLPRPRPRPTDNPRP | -0.391 |
| RRIRCRPPRLPRPRPRPEYMPRP | 0.0436 |
| RRIRHRPPRLPRPRPRPPHQPRP | -0.151 |
| RRIRKRPPRLPRPRPRPKTQPRP | 0.422 |
| RRIRNRPPRLPRPRPRPKKGPRP | 0.0558 |
| RRIRQRPPRLPRPRPRPPKLPRP | 0.202 |
| RRIRSRPPRLPRPRPRPRYAPRP | -0.0842 |
| RRIRCRPPRLPRPRPRPVQDPRP | 0.0523 |
| RRIRTRPPRLPRPRPRPDHAPRP | 0.283 |
| RRIRTRPPRLPRPRPRPLLNPRP | -0.157 |
| RRIRERPPRLPRPRPRPVSHPRP | -0.0904 |
| RRIRARPPRLPRPRPRPSCDPRP | 0.323 |
| RRIRMRPPRLPRPRPRPDHYPRP | -0.0146 |
| RRIRNRPPRLPRPRPRPGMTPRP | -0.257 |

| Sequence | shrunken log2 fold change |
| --- | --- |
| RRIRSRPPRLPRPRPRPCTNPRP | -0.256 |
| RRIRFRPPRLPRPRPRPDKCPRP | -0.18 |
| RRIRWRPPRLPRPRPRPRWSPRP | 0.372 |
| RRIRGRPPRLPRPRPRPQPYPRP | -0.0844 |
| RRIRERPPRLPRPRPRPLLHPRP | -0.288 |
| RRIRKRPPRLPRPRPRPVWDPRP | 2.04 |
| RRIRSRPPRLPRPRPRPIDRPRP | 0.0178 |
| RRIRCRPPRLPRPRPRPKQGPRP | 0.261 |
| RRIRFRPPRLPRPRPRPYSDPRP | -0.298 |
| RRIRARPPRLPRPRPRPVVLPRP | 0.463 |
| RRIRIRPPRLPRPRPRPTHNPRP | -0.145 |
| RRIRFRPPRLPRPRPRPQEKPRP | -0.0525 |
| RRIRHRPPRLPRPRPRPFFAPRP | 0.0898 |
| RRIRHRPPRLPRPRPRPLFRPRP | 0.0546 |
| RRIRERPPRLPRPRPRPMWRPRP | -0.0079 |
| RRIRCRPPRLPRPRPRPRDWPRP | 0.591 |
| RRIRPRPPRLPRPRPRPNVHPRP | -0.44 |
| RRIRYRPPRLPRPRPRPPQCPRP | -0.32 |
| RRIRQRPPRLPRPRPRPTTKPRP | -0.122 |
| RRIRWRPPRLPRPRPRPQARPRP | 0.19 |
| RRIRARPPRLPRPRPRPFQWPRP | -0.0629 |
| RRIRIRPPRLPRPRPRPIANPRP | -0.0104 |

| Sequence | shrunken log2 fold change |
| --- | --- |
| RRIRRRPPRLPRPRPRPVIGPRP | 0.149 |
| RRIRWRPPRLPRPRPRPNTMPRP | -0.301 |
| RRIRIRPPRLPRPRPRPGSKPRP | -0.0906 |
| RRIRQRPPRLPRPRPRPEFFPRP | 0.0969 |
| RRIRWRPPRLPRPRPRPLMPPRP | 0.486 |
| RRIRCRPPRLPRPRPRPKHFPRP | -0.209 |
| RRIRIRPPRLPRPRPRPACAPRP | -0.149 |
| RRIRERPPRLPRPRPRPMWLPRP | -0.07 |
| RRIRCRPPRLPRPRPRPNQRPRP | -0.093 |
| RRIRLRPPRLPRPRPRPQHRPRP | -0.0199 |
| RRIRCRPPRLPRPRPRPYWPPRP | -0.158 |
| RRIRCRPPRLPRPRPRPIGMPRP | -0.121 |
| RRIRQRPPRLPRPRPRPLVYPRP | -0.737 |
| RRIRFRPPRLPRPRPRPRPGPRP | 0.837 |
| RRIRFRPPRLPRPRPRPNLLPRP | -0.187 |
| RRIRVRPPRLPRPRPRPMWIPRP | 0.00541 |
| RRIRNRPPRLPRPRPRPAQKPRP | 0.918 |
| RRIRERPPRLPRPRPRPGRMPRP | 0.0231 |
| RRIRCRPPRLPRPRPRPNTTPRP | -0.291 |
| RRIRPRPPRLPRPRPRPKWRPRP | 0.0676 |
| RRIRIRPPRLPRPRPRPHLFPRP | -0.359 |
